Experimental data reported in the supplement of paper PMC9170038.

System: MS2 coat protein
Assay: apparent KD of MS2 coat protein; higher = weaker reporter binding
Details: Eterna round: R107
Procedure, shortened: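 SNAP-549-labelled MS2 coat protein was titrated onto designed RNA switches that had been transcribed on-chip from Illumina sequencing clusters. Amounts doubled from 0.7 or 1.5 nM to 3 µM in 100 mM Tris-HCl pH 7.5, 80 mM KCl, 4 mM MgCl2, with constant ligand or without. Apparent KD is the median per design of normalised cluster binding-curve fits.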

[1] = input ligand: theophylline 20 uM
[2] = input ligand: theophylline 2 mM
[3] = input ligand: tryptophan 2.4 mM

Sequence | apparent KD of MS2 coat protein (input ligand: arginine 13.2 mM) | apparent KD of MS2 coat protein (input ligand: none) | apparent KD of MS2 coat protein [1] | apparent KD of MS2 coat protein [2] | apparent KD of MS2 coat protein [3]
GGUGGCGUGACGGAUACCAGCCACCACCGUUAGACCACAUGAGGAUCACCCAUGUUGGGUGGCCCUUGGCAGCUGUCGUGCGGCG [#1 Same State - Theophylline B Attempt #18 (HarryS)] | 140 nM | 377 nM | 250 nM | 113 nM | 337 nM
UAUAUGGUGAUGGAUACCAGCAGAGAAAACGUUUAUCCUAACAUGAGGAUCACCCAUGUAUGCCCUUGGCAGCUGUUGUUAUAUA [8.M] | 26.7 nM |  | 42.3 nM |  | 35.2 nM
AGCACUGUGACGGCCGCCACUACAUAAAUUGGGUGGUCAGGUUCAUUACAUGAGGAUCACCCAUGUAGGACCGGGUCUCAGUGCA [Omei Trp Exc B A v8] | 15.9 nM | 11.4 nM | 20.6 nM | 13.3 nM | 7.33 nM
UCUACAUGAGGAUCACCCAUGUGCCAUGAUACCAGACAUGAAAAUGUCCCUUGGCAGCAUGGGUAGCGCAUCCGAAAGGAUGCGU [#06 SameState-TheophyllineA] | 42.4 nM |  | 155 nM |  | 33.4 nM
UUUUUUUUGGGAAGGAGCGGGAACAUGUGGAUCUCCCAUGUACAUGAGGAUCACCCAUGUACCCAGGUAGGUCGCCCAUUUUUUU [Exclusion - Arginine B] | 69.5 nM | 102 nM | 94.7 nM | 112 nM | 66.2 nM
GGGUGUGAUCCGGAUACCAGUGAACAUGAGGAUCACCCAUGUGACCUGAGAUCGGCUCUUCACCCUUGGCAGCCGCGGUCGCAGG [Same State Theophylline B GF14] | 11.4 nM | 11.5 nM | 18.6 nM | 10.7 nM | 10 nM
ACUUUGUCGGGUGAUACCAGCCUCGGCACAUCUCGUGCCGAACAUGAGGAUCACCCAUGUGGCCCUUGGCAGCACAUGACAAAUC [Isredior] | 70.1 nM |  | 522 nM |  | 423 nM
ACAUGAGGAUCACCCAUGUUCCUCUUUGAUACCAGUGAGUUGUUUCGCCCUUGGCAGCGAGUGUUUGUUUUUUUGUUUUGUUUGG [6.S] | 137 nM |  | 314 nM |  | 229 nM
GGAGUCGUCACGGCCGCCACUGCGGUGGUGUGACAUGAGGAUCACCCAUGUUGUCAUGCGGCCCUUAGGACCGGGUGUCGGUUCC [#1 Exclusion - Tryptophan B Attempt #23 (HarryS)] | 57.1 nM |  | 85.1 nM | 78.3 nM | 
UAACAUGAGGAUCACCCAUGUUUGGAGAAACGAGGACCGGUACGGCCGCCACUCGAGGAGUGGAUGAGAAGUGGGAUAGAGUGAU [Same State Trp A GF6] | 19.2 nM | 19.6 nM | 19.6 nM | 17.5 nM | 15.1 nM
UUUUAAAGCAUGGCGUAUCGGAAAACCGAUACCAGUACAGAAAUGUACCCUUGGCAGCGGAAUUUUACAUGAGGAUCACCCAUGU [Ex Theophylline A 1] | 14.9 nM |  | 19.7 nM |  | 12.7 nM
AAAAUAAAUAAAACGCGUAACAUGAAGGAUACCAGCCAGAAAACUGGCCCUUGGCAGCCUCUACAUGAGGAUCACCCAUGUCGCG [Mat - Same State Theophlline A - Mod of Eli - D15] | 161 nM |  | 141 nM |  | 332 nM
UGGCGAGAAGGAAGGAGCGUCAGCUGAGUUACAUGAGGAUCACCCAUGUUGCACAUAGUGUGACAGGUAGGUCGCCUUCUGCCCU [SS-ArgB19] | 38 nM | 44.1 nM | 63.7 nM | 37.5 nM | 37.6 nM
ACAGGAAACGGAAGGAGCGGAAUUGCAACAUGAGGAUCACCCAUGUUGAUCGUGAGUUGCUUCCAGGUAGGUCGCCGUUACCUAA [Erorve] | 30.1 nM | 33.6 nM | 39.4 nM | 44.2 nM | 30.4 nM
GCUGCCAUACGAAGGAGCGCUGGUGUAAUGAGGCGAACAUGAGGAUCACCCAUGUGGCAUAAGCAGGUAGGUCGCGUAUGGCAGC [EAB #16] | 16.6 nM | 17.2 nM | 20.2 nM | 20.8 nM | 15.9 nM
AGAAGUCCAGACUACACGUGGAAAAGCGAUACCAGACUCAUAGGUGUCCCUUGGCAGCGCGUAACAUGAGGAUCACCCAUGUGAU [theeternabot_exclusion_MS2_Theo_A_9] | 66.8 nM |  | 190 nM |  | 133 nM
AGACAUGAGGAUCACCCAUGUAGUACGGAUACCAGAUCCAGAUGCGUCCCUUGGCAGCUGUAGUACAGCGUUACGUCGCUCAUAG [Exclusion - Theophylline A (Freestyle 26)] | 20.3 nM |  | 48.1 nM |  | 28.4 nM
GUUGCACAUGAGGAUCACCCAUGUUUGGAUACCAGUCUCUGUAAUGACCCUUGGCAGCCACCAUAGACGCUUGAGUAGAGCCUGA [theeternabot_sameState_MS2_Theo_A_21] | 14.2 nM |  | 19.4 nM |  | 15.5 nM
AAGUGGCACGGAAGGAGCGAGUUUGCCUAUUACAUGAGGAUCACCCAUGUGGGUAAUGGGACUCAGGUAGGUCGCCGUUGUCACU [Same State Arginine B GF 26] | 29.5 nM | 56.8 nM | 48.5 nM | 42 nM | 46.3 nM
AUGUCGUUGAAUACAGCGGCAUGGAGUGAUACCAGAAUGAUCAAAUUCCCUUGGCAGCAUGACAUGAGGAUCACCCAUGUUCGAU [SSTheo A #15] | 34.3 nM |  | 61.3 nM |  | 77.5 nM
UUGUGUUUAUUGGUUUAGCUAUUAUGGUUGCGAGGACCGGUACGGCCGCCACUCGAUGGAACAUGAGGAUCACCCAUGUGAGGAA [JR_ExcTryptoA_Sub013] | 14.7 nM | 28 nM | 31.8 nM | 33.9 nM | 22.1 nM
UUCUGGUCCCGUGAUACCAGAGACAUGAGGAUCACCCAUGUACAUGAGGAUCACCCAUGUUUCCCUUGGCAGCACUGCAGUGAGC [Exclusion Theophylline B GF 15] | 56 nM | 261 nM | 160 nM | 332 nM | 147 nM
UGUAAAAUAACAGAUACCAGCGUGUUAUAAAACAUGAGGAUCACCCAUGUAGUGAUCAAGCGCCCUUGGCAGCUGGUAUUUUAUG [7.D] | 105 nM |  | 171 nM |  | 140 nM
UAUAGUGUGAUGGAUACCAGCAGAGAAAACGUUUAUCCUAACAUGAGGAUCACCCAUGUAUGCCCUUGGCAGCUGUUGUGUUAUA [8.O] | 28.9 nM |  | 42.5 nM |  | 30.3 nM
GGAUUCAACUCGGCCGCCACUGGUGAUCCUAAUGUACAUGAGGAUCACCCAUGUACAUGAGAAUACAGGACCGGGAGAUAAGCAA [Tryptophan B V2 (+4A)] | 20.1 nM |  | 26.5 nM | 24 nM | 
CCGCCCUACCGCGAUACCAGUACGGCAGUUAACAUGAGGAUCACCCAUGUGCAAACAUAAUACCCUUGGCAGCGCCUGAAUCCAU [theeternabot_sameState_MS2_Theo_B_12] | 15.7 nM |  | 29.2 nM |  | 15.6 nM
